From the supplement of paper PMC9170038 come the findings set out here.

For this data set, the system named is MS2 coat protein. The experiment in a line: apparent KD of MS2 coat protein; designed switch direction (-1 OFF switch, 1 ON switch): -1; higher = weaker reporter binding. In short, it runs like this: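 Designed RNA switches sharing common flanks were transcribed on Illumina chips by stalled E. coli RNA polymerase. They were titrated with SNAP-549-labelled MS2 coat protein, from 0.7 or 1.5 nM doubling to 3 µM, in Tris-HCl pH 7.5 buffer with KCl, MgCl2, BSA, DTT, tRNA and Tween-20. Titrations ran without input, with 200 uM small-molecule ligand, or with an oligonucleotide input. The apparent KD of each design is the median over its clusters, after curve-fitting of normalised cluster fluorescence.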

Setting [1] is: input ligand: microRNA oligo, concentration not stated.
Setting [2] is: Eterna round: R95, input ligand: microRNA oligo, concentration not stated.
Where [3] appears, read: Eterna round: R95, input ligand: FMN 200 uM.
[4] abbreviates: Eterna round: R95, input ligand: none.

For the sequence “UCUUAGCAAGCAAAUGGGUACAUGAGGAUCACCCAUGUGCUCGUCUUAUAAGGUACUGUGACGAAAGUCACGGUACC [mod--Eli8] (Eterna round: R97, puzzle: Sensor, turn-off variant 1)”, the “apparent KD of MS2 coat protein” value by setting is: (input ligand: FMN 200 uM) 24.7 nM; (input ligand: none) 19.5 nM.
Regarding “UCUUUGUUUGUGAGGAUAUCGGUGGGAUGGGUUGUCGAGAAGGCACAUGAGGAUCACCCAUGUGAGGGACAGCA [JR_BMEx4_Sub028] (Eterna round: R97, puzzle: Brourd's mod of Exclusion 4)”, the “apparent KD of MS2 coat protein” value is, setting by setting: (input ligand: FMN 200 uM) 16.6 nM; (input ligand: none) 16.2 nM.
Turning to “UGAAUACGUGUUAGGAUAUGGUUUGGUAUUUCGGGCUAGAAGGGACAUGAGGAUCACCCAUGUAAUUGAUAGGU [-16.2, -13.6 kcal, 27% A] (Eterna round: R97, puzzle: Brourd's mod of Exclusion 4)”, the “apparent KD of MS2 coat protein” value amounted to 52.4 nM (input ligand: FMN 200 uM) and 38.5 nM (input ligand: none).
As for “UGAGUGCUGCGAGGAUAUACAUGAGGAUCACCCAUGUAAUCGUGUGAGGCAAAGCCUCACACGAAGUAGAAGGCGCAGUACUCU [Mat - Exclusion NG 2 - Mod of JL - D17] (Eterna round: R96, puzzle: Exclusion NG 2)”, the “apparent KD of MS2 coat protein” value (input ligand: FMN 200 uM) was 16 nM, the “apparent KD of MS2 coat protein” value under setting [1] came to 11.4 nM and the “apparent KD of MS2 coat protein” value (input ligand: none) amounted to 18.5 nM.
Regarding “UGAGUGCUGCGAGGAUAUACAUGAGGAUCACCCAUGUAAUCGUGUGAGGCUAUGCCUCACACGAAGUAGAAGGCGCAGUACUCU [Mat - Exclusion NG 2 - Mod of JL - D16] (Eterna round: R96, puzzle: Exclusion NG 2)”, the “apparent KD of MS2 coat protein” value by setting is: (input ligand: FMN 200 uM) 9.98 nM; under setting [1], 8.33 nM; (input ligand: none) 9.63 nM.
For the sequence “UGAUCUAGCGGAGGAUAUACAUGAGGAUCACCCAUGUAAAUCGCUUUACCGUAGUGAAGCAUCAUGUAGAAGGCCGCUAGAUCU [MOD3 ENG2 3.62 by JL] (Eterna round: R96, puzzle: Exclusion NG 2)”, the “apparent KD of MS2 coat protein” value reads like this: (input ligand: FMN 200 uM) 59.3 nM; under setting [1], 480 nM; (input ligand: none) 592 nM.
As for “UGAUCUAGCGGAGGAUAUACAUGAGGAUCACCCAUGUAGAAUCCAUGACCGUAGUCGUGGAUCGUGUAGAAGGCCGCUAGAUCU [JL ENG2 3.71] (Eterna round: R96, puzzle: Exclusion NG 2)”, the “apparent KD of MS2 coat protein” value (input ligand: FMN 200 uM) is 21.8 nM, the “apparent KD of MS2 coat protein” value under setting [1] was 9 nM and the “apparent KD of MS2 coat protein” value (input ligand: none) amounted to 12.5 nM.
“UGAUCUAGCGGAGGAUAUACAUGAGGAUCACCCAUGUAGAUAACUGCACCGUAGUGUAGUAUUGUGUAGAAGGCCGCUAGAUCU [JL ENG2 3.65] (Eterna round: R96, puzzle: Exclusion NG 2)”: the “apparent KD of MS2 coat protein” value reads like this: (input ligand: FMN 200 uM) 26.8 nM; under setting [1], 11.4 nM; (input ligand: none) 14.2 nM.
In the same order, the values of “UGAUCUAGCGGAGGAUAUACAUGAGGAUCACCCAUGUAGGAUCCAUGACCGUAGUCGUGGAUCGUGUAGAAGGCCGCUAGAUCU [JL ENG2 3.70] (Eterna round: R96, puzzle: Exclusion NG 2)” are 13 nM, 8.14 nM and 13.1 nM.
On to “UGAUCUAGCGGAGGAUAUACAUGAGGAUCACCCAUGUAGUAGUCUGUACCGUAGUGCAGACUUGUGUAGAAGGCCGCUAGAUCU [JL ENG2 3.61] (Eterna round: R96, puzzle: Exclusion NG 2)”, for which the “apparent KD of MS2 coat protein” value by setting is: (input ligand: FMN 200 uM) 15.8 nM; under setting [1], 10.8 nM; (input ligand: none) 14.1 nM.
For “UGAUCUUUUGUUAGGAUAUGCUGGGUUUUUUCUCAGCAGAAGGGACAUGAGGAUCACCCAUGUUUUGUCAUAAA [Magic-07] (puzzle: Brourd's mod of Exclusion 4)”, the “apparent KD of MS2 coat protein” value under setting [2] stood at 20.3 nM.
Take “UGAUCUUUUGUUAGGAUAUGCUGUUUUUUUUUUCAGCAGAAGGGACAUGAGGAUCACCCAUGUUUUGUCAUAAA [Magic-06] (Eterna round: R96, puzzle: Brourd's mod of Exclusion 4)”: the “apparent KD of MS2 coat protein” value stood at 45 nM (input ligand: FMN 200 uM), 24.1 nM under setting [1] and 33 nM (input ligand: none).
On to “UGAUCUUUUGUUAGGAUAUGCUGUUUUUUUUUUCAGCAGAAGGGACAUGAGGAUCACCCAUGUUUUGUCAUAAA [Magic-06] (puzzle: Brourd's mod of Exclusion 4)”, for which the “apparent KD of MS2 coat protein” value under setting [2] came to 14.4 nM.
Regarding “UGAUUGAUUAACAGAUUAUACAUGAGGAUCACCCAUGUAGGUCCUACGUGCACUUUAUGCAGCUCGUCUUAUUCCCA [Sensor-V1 #71] (Eterna round: R97, puzzle: Sensor, turn-off variant 1)”, the “apparent KD of MS2 coat protein” value is, setting by setting: (input ligand: FMN 200 uM) 34.4 nM; (input ligand: none) 36.5 nM.
For “UGAUUGUUUACCAGAUUAUACAUGAGGAUCACCCAUGUAGAUCCUACGUGCACGUUAUACAGCUCGUCUUAUUCCCA [Sensor-V1 #74] (Eterna round: R97, puzzle: Sensor, turn-off variant 1)”, the “apparent KD of MS2 coat protein” value runs as follows: (input ligand: FMN 200 uM) 35.4 nM; (input ligand: none) 36.2 nM.
In the case of “UGAUUGUUUACCAGAUUAUACAUGAGGAUCACCCAUGUAGAUCCUACGUGCACGUUAUGCAGCUCGUCUUAUUCCCA [Sensor-V1 #73] (Eterna round: R97, puzzle: Sensor, turn-off variant 1)”, the “apparent KD of MS2 coat protein” value is, setting by setting: (input ligand: FMN 200 uM) 40.3 nM; (input ligand: none) 44.1 nM.
Turning to “UGCAUGUGAGGAUAUGUGUACUGUUUUUUGUUUAGAUGUACACAGAAGGCACAUGAGGAUCACCCAUGUAGUAC [Ex4 - 3 - 33] (puzzle: Exclusion 4)”, under setting [2], the “apparent KD of MS2 coat protein” value came to 46.1 nM.
Regarding “UGCCAGAAAGGAUAUACAGCCCGGGCGUUCCUGCGAUAUAUACAUGAGGAUCACCCAUGUAGAAGGUUCGGCGG [EX2 C.12] (Eterna round: R97, puzzle: Exclusion 2)”, the “apparent KD of MS2 coat protein” value was 33.1 nM (input ligand: FMN 200 uM) and 28.5 nM (input ligand: none).
Consider “UGCGGGCUUCUGAGACCUCACAUGAGGAUCACCCAUGUGCUUGUCUUGUAAGUGGGUAGGUCGUUGGCUGACUCACA (Eterna round: R97, puzzle: Sensor, turn-off variant 1)”, for which the “apparent KD of MS2 coat protein” value is 18.2 nM (input ligand: FMN 200 uM) and 17.8 nM (input ligand: none).
Consider “UGCUGACGAGGAUAUACAUGAGGAUCACCCAUGUUGGUCAAGCGACGAUAGUCGCAAUGUAGAAGGUGUCAGCA [E3/8-B1] (Eterna round: R97, puzzle: Exclusion 3)”, for which the “apparent KD of MS2 coat protein” value by setting is: (input ligand: FMN 200 uM) 694 nM; (input ligand: none) 114 nM.
“UGGCAAGUAGGAUAUUGGGUGUGGGACAUGAGGAUCACCCAUGUGAUCACUCAAUCUCUCCGAGAAGGGCUAAGAA [Araes] (puzzle: Exclusion 5)”: the “apparent KD of MS2 coat protein” value under setting [2] turned out to be 14 nM.
With “UGGCUACAUGAGGAUCACCCAUGUCAGGAUAUGCCGUUGAAUUGACAUCGACGUACGGGUAGAAGGGACUGCGU [1st #10] (Eterna round: R97, puzzle: Exclusion 1)”, the “apparent KD of MS2 coat protein” value worked out at 50 nM (input ligand: FMN 200 uM) and 41.6 nM (input ligand: none).
Consider “UGGGUACAUGAGGAUCACCCAUGUGAGGAUAUGCCGGAAGAAUCGCAGAAAUGAGCCAGUAGAAGGCACAAGGG [Eternabot (L2) Solution 100] (Eterna round: R97, puzzle: Exclusion 1)”, for which the “apparent KD of MS2 coat protein” value is, setting by setting: (input ligand: FMN 200 uM) 1300 nM; (input ligand: none) 1190 nM.
In the case of “UGGUAACAUGAGGAUCACCCAUGUCAGGAUAUCAGGAAGAGGAGAGGAGAGGAGAAGAUGAGAAGGGACUAUAU [Excluse me! 12 - Jieux - Exclusion 1] (puzzle: Exclusion 1)”, under setting [2], the “apparent KD of MS2 coat protein” value worked out at 19.8 nM.
The same measure, in the same setting: the figure for “UGGUAACAUGAGGAUCACCCAUGUCAGGAUAUCAGUAAGAAUAGAUUAGAUUAGAAUAUGAGAAGGGACUAUAU [Excluse me! 4 - Jieux - Exclusion 1] (puzzle: Exclusion 1)” is 30.9 nM.
On to “UGUAAGCUAGGAUAUGCUUUGGGAAAGCAUUCCUUCGAUAAACUUGAGGAUCACCCAAGUAGAAGGAGCUUACA [salish99_ex2_r4_005] (Eterna round: R97, puzzle: Exclusion 2)”, for which the “apparent KD of MS2 coat protein” value reads like this: (input ligand: FMN 200 uM) 20.8 nM; (input ligand: none) 12.4 nM.
On to “UGUACGAUGCGUGCUGACAUGCGUCGUGCAGCAGGUUUUACAUGAGGAUCACCCAUGUCCUCACUUGCUCGUCUUGU (puzzle: Sensor v3, turn-off variant 2)”, for which the “apparent KD of MS2 coat protein” value amounted to 257 nM under setting [3], 187 nM under setting [2] and 279 nM under setting [4].
“UGUACUAUGCGAGCUGACUUGCGUAGUGCAGCAGGUGGAACAUGAGGAUCACCCAUGUCCUCAUUUGCUCGUCUUAU [SL-sv3-2.03 JL mod] (puzzle: Sensor v3, turn-off variant 2)”: the “apparent KD of MS2 coat protein” value worked out at 39 nM under setting [3], 143 nM under setting [2] and 41.2 nM under setting [4].
As to “UGUCAGAUGGUAGGAUAUCCAUAUCGAGUGACCCUUUCAUAACAUGAGGAUCACCCAUGUCGGUGGGAGAAGGGCCGUACGGUG [salish99_ExNG02_R04_024] (Eterna round: R96, puzzle: Exclusion NG 2)”, the “apparent KD of MS2 coat protein” value was determined as 27.1 nM (input ligand: FMN 200 uM), 29.6 nM under setting [1] and 36.2 nM (input ligand: none).
Turning to “UGUCAGAUGGUAGGAUAUCCGUAUCGCGUGUCCCUUUCCUAACAUGAGGAUCACCCAUGUCGGUGGGAGAAGGGCCGUAUGGUG [salish99_ExNG02_R04_037] (Eterna round: R96, puzzle: Exclusion NG 2)”, the “apparent KD of MS2 coat protein” value came out at 12.9 nM (input ligand: FMN 200 uM), 10.6 nM under setting [1] and 15.3 nM (input ligand: none).
Take “UGUGUCCGGGAGGAUAUCAGAACGCUAGUGGUCUGAGAAGGCCUAACAUGAGGAUCACCCAUGUGAUUAUUUAU [Eternabot (L2) Solution 51] (Eterna round: R97, puzzle: Exclusion 6)”: the “apparent KD of MS2 coat protein” value worked out at 93.4 nM (input ligand: FMN 200 uM) and 52.5 nM (input ligand: none).
